According to patent publication US20100203055A1, “HAIR REGROWTH PROMOTER” (priority 2007, published 2010):
Entries after “also recorded” stand apart in the source; their conditions may differ. Blank lines part the entries; values can stand above or below the molecule they belong to.

Experiments:
FGFR3c = experiment: Inhibition of FGF18-stimulated DNA synthesis (cell growth) in FGFR3c/BaF3 cells by FGF18 partial peptides; format: cell-based, mouse
From the text: (§1) According to teachings disclosed in literature, the FGF receptor genes FGFR1c, FGFR2c, FGFR3c and FGFR4 were respectively introduced by means of genetic engineering into Ba/F3 cell strain (obtained from RIKEN BRC) which is mouse IL-3-dependent proB cell to thereby prepare cells on whose surface FGFR was compulsively expressed (Ornitz, D M., Xu, J., Colvin, J S., McEwen, D G, MacArthur, C A., Coulier, E, Gao, G. and Goldfarb, M., 1996. Receptor specificity of the fibroblast growth factor family. J. Biol. Chem. 271(25):15292-15297; Yoneda, A., Asada, M., Oda, Y, Suzuki, M. and Imamura, T., 2000. Engineering of an FGF-proteoglycan fusion protein with heparin-independent, mitogenic activity. Nat. Biotec. 18(6):641-644).
(§2) Using these cells, the antagonist activity of test samples [whether or not test samples inhibit the DNA synthesis of FGF18-stimulated cell (this is taken as 100%)] was examined while stimulating each receptor with 30 ng/ml FGF18, in the co-presence of each partial peptide of FGF18 at 1 μg/ml (FIG. 3A) or at 100 ng/ml (FIG. 3B). Briefly, an activity that inhibits the cell growth stimulating effect of FGF18 was analyzed. Correspondence between individual columns and test samples is as described below.

hair follicle growth = experiment: Hair growth inhibiting effect by continuous administration of FGF18 in anagen phase-induced C3H/HeN mice; format: in vivo, mouse
Protocol: In order to examine the effect of FGF18 in vivo on hair follicle growth, FGF18 protein dissolved in phosphate buffered physiological saline (PBS) was administered to hair follicle anagen phase-induced mice. Briefly, dorsal hair of 50 day-old C3H/HeN male mice in telogen phase was depilated gently with fingers to thereby induce the start of hair follicle anagen phase. Then, FGF18 solution was injected into the dorsal skin subcutaneously from the vicinity of the tail (1 μg of FGF18 per mouse). The mice were maintained on a diet and water ad libitum. Starting from this day, FGF18 solution was injected subcutaneously into the dorsal skin every day at about the same time for consecutive 8 days. The control group received injection of PBS instead of FGF18. Nine days after the initial injection, the mice were euthanized under anesthesia. Full thickness skin samples were excised from the dorsal part and embedded in paraffin. The thus embedded skin samples were sliced into 4 μm thick sections with a microtome, stained with hematoxylin and observed under microscope.

hair follicles = details: single administration to mouse skin in telogen phase; Non-Patent Document 19 and Patent Document 2; cited from earlier work
[1] = test system: human dermal papilla cells (HFDP); experiment: Effect of FGF18 on gene expression of hair follicle growth promoting factors in dermal papilla cells; format: cell-based; details: dermal papilla cells cultured 24 hr with FGF18, then medium deprived of FGF18, versus continued FGF18-containing medium
Protocol: Cultured human dermal papilla cells (HFDP; from adult human scalp; Toyobo) were subcultured in HFDP growth medium (20% fetal bovine serum-containing basal medium for dermal papilla cell; Toyobo) and used in experiments within two passages. The cells were treated with trypsin and seeded in collagen-coated dishes (Sumilon; 6 cm in diameter) at 4×10^5 cells/dish. The cells were maintained at 37° C. in HFDP medium. On the next day, the medium was exchanged for HEK medium (EpiLife™, 0.06 mM CaCl2, 10 μg/ml insulin, 0.1 ng/ml hEGF, 0.5 μg/ml hydrocortisone, 0.4% BPE), and then FGF18 was added to the medium. After the cells were cultured for 24 hr, the medium was exchanged for FGF18 free medium in the test sample group (“-FGF18”). The control group (“Control”) was cultured continuously in the FGF18-containing medium. Subsequently, the cells were harvested and the mRNA was extracted and purified. The expression levels of mRNA from VEGF (known as a hair follicle growth promoting factor) and noggin (known as a hair growth inhibiting factor) contained in the resultant mRNA were analyzed.

FGFR4 = molecular target: T1, FGFR4 (Homo sapiens, UniProt P22455); experiment: Inhibition of FGF18-stimulated DNA synthesis (cell growth) in FGFR4/BaF3 cells by FGF18 partial peptides; format: cell-based, mouse; details: test sample 1 μg/ml, 30 ng/ml FGF18, FIG. 3A
T1 construct: expressed in transfected cells; host or cells: Ba/F3 (mouse IL-3-dependent proB cell); R4/Ba/F3 cells under G-418
From the text: as §1, §2

[2] = test sample 1 μg/ml, 30 ng/ml FGF18, FIG. 3A
[3] = test sample 100 ng/ml, 30 ng/ml FGF18, FIG. 3B

T1 sequence (P22455 22-802, species assumed): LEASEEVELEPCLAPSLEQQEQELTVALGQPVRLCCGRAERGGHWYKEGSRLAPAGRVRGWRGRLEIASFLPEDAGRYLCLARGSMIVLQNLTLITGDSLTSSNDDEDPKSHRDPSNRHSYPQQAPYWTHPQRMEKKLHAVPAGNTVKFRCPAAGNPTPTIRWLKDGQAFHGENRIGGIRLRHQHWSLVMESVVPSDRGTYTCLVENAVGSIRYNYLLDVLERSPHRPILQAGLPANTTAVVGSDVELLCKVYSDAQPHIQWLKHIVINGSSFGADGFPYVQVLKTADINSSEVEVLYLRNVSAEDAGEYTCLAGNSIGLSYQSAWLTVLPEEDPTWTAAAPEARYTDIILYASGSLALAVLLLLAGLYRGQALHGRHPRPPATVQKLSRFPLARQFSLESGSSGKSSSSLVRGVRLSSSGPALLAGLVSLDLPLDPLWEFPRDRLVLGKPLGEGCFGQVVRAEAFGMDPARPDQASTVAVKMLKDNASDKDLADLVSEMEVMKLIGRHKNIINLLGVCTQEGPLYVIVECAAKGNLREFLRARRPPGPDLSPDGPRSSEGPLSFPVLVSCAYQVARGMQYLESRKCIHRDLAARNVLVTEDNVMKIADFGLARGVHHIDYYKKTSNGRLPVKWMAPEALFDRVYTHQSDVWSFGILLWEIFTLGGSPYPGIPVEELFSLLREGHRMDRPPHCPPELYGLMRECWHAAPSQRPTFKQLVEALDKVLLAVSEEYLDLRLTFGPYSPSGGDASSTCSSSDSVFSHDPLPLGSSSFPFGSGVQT

inhibition of the activity of FGF18 on FGFR4/BaF3 cells (FGFR4): strongly inhibit
B4: d95: partial peptide of mouse FGF18, 95 amino acids deleted from N-terminus; SEQ ID NO: 24 (protein)
chain: MGTSKECVFIEKVLENNYTALMSAKYSGWYVGFTKKGRPRKGPKTRENQQDVHFMKRYPKGQAELQKPFKYTTVTKRSRRIRPTHPG
modifications: truncation mutant polypeptide of mouse FGF18(d95)
inhibition of the activity of FGF18 on FGFR3c/BaF3 cells (FGFR3c; [3]): strongly inhibit
inhibition of the activity of FGF18 on FGFR3c/BaF3 cells (FGFR3c; [2]): strongly inhibit

inhibition of the activity of FGF18 on FGFR4/BaF3 cells (FGFR4): strongly inhibit
B5: d48: partial peptide of mouse FGF18, 48 amino acids deleted from N-terminus; SEQ ID NO: 21 (protein)
chain: MARGEDGDKYAQLLVETDTFGSQVRIKGKETEFYLCMNRKGKLVGKPDGTSKECVFIEKVLENNYTALMSAKYSGWYVGFTKKGRPRKGPKTRENQQDVHFMKRYPKGQAELQKPFKYTTVTKRSRRIRPTHPG
modifications: truncation mutant polypeptide of mouse FGF18(d48)
inhibition of the activity of FGF18 on FGFR3c/BaF3 cells (FGFR3c; [2]): strongly inhibit

inhibition of the activity of FGF18 on FGFR4/BaF3 cells (FGFR4): strongly inhibit
B6: d77: partial peptide of mouse FGF18, 77 amino acids deleted from N-terminus; SEQ ID NO: 23 (protein)
chain: MTEFYLCMNRKGKLVGKPDGTSKECVFIEKVLENNYTALMSAKYSGWYVGFTKKGRPRKGPKTRENQQDVHFMKRYPKGQAELQKPFKYTTVTKRSRRIRPTHPG
modifications: truncation mutant polypeptide of mouse FGF18(d77)
inhibition of the activity of FGF18 on FGFR3c/BaF3 cells (FGFR3c; [2]): strongly inhibit

Continued, molecule first:

B1: d37: partial peptide of mouse FGF18, 37 amino acids deleted from N-terminus; SEQ ID NO: 20 (protein)
chain: MKHIQVLGRRISARGEDGDKYAQLLVETDTFGSQVRIKGKETEFYLCMNRKGKLVGKPDGTSKECVFIEKVLENNYTALMSAKYSGWYVGFTKKGRPRKGPKTRENQQDVHFMKRYPKGQAELQKPFKYTTVTKRSRRIRPTHPG
modifications: truncation mutant polypeptide of mouse FGF18(d37)
inhibition of the activity of FGF18 on FGFR3c/BaF3 cells (FGFR3c; [2]): strongly inhibit

B2: FGF18: fibroblast growth factor 18 protein; secreted polypeptide of 181 amino acids; commercial FGF18 (PeproTech) used (protein)
chain: EENVDFRIHVENQTRARDDVSRKQLRLYQLYSRTSGKHIQVLGRRISARGEDGDKYAQLLVETDTFGSQVRIKGKETEFYLCMNRKGKLVGKPDGTSKECVFIEKVLENNYTALMSAKYSGWYVGFTKKGRPRKGPKTRENQQDVHFMKRYPKGQPELQKPFKYTTVTKRSRRIRPTHPA
hair growth / hair follicle growth (hair follicle growth; 1 μg FGF18 per mouse subcutaneously once a day for 8 days after depilation, observed at day 9, versus PBS): hair growth is strongly inhibited; also recorded: hair growth was markedly inhibited
growth of hair follicles after stopping FGF18 administration (hair follicle growth; continuous administration under the same conditions, then stopped and mice raised thereafter): growth of hair follicles occurred
hair regrowth after single administration (hair follicles): induces hair regrowth
expression level of VEGF mRNA [1]: 4.8 fold
expression level of noggin mRNA [1]: 3.5 fold

B3: d16: partial peptide of mouse FGF18, 16 amino acids deleted from N-terminus; SEQ ID NO: 17 (protein)
chain: MARDDVSRKQLRLYQLYSRTSGKHIQVLGRRISARGEDGDKYAQLLVETDTFGSQVRIKGKETEFYLCMNRKGKLVGKPDGTSKECVFIEKVLENNYTALMSAKYSGWYVGFTKKGRPRKGPKTRENQQDVHFMKRYPKGQAELQKPFKYTTVTKRSRRIRPTHPG
modifications: truncation mutant polypeptide of mouse FGF18(d16)
inhibition of the activity of FGF18 on FGFR3c/BaF3 cells (FGFR3c; [3]): strongly inhibit
inhibition of the activity of FGF18 on FGFR3c/BaF3 cells (FGFR3c; [2]): strongly inhibit

B7: d22: partial peptide of mouse FGF18, 22 amino acids deleted from N-terminus; SEQ ID NO: 19 (protein)
chain: MRKQLRLYQLYSRTSGKHIQVLGRRISARGEDGDKYAQLLVETDTFGSQVRIKGKETEFYLCMNRKGKLVGKPDGTSKECVFIEKVLENNYTALMSAKYSGWYVGFTKKGRPRKGPKTRENQQDVHFMKRYPKGQAELQKPFKYTTVTKRSRRIRPTHPG
modifications: truncation mutant polypeptide of mouse FGF18(d22)
inhibition of the activity of FGF18 on FGFR3c/BaF3 cells (FGFR3c; [2]): strongly inhibit
inhibition of the activity of FGF18 on FGFR4/BaF3 cells (FGFR4): strongly inhibit
